B1: Fractalkine (Homo sapiens), P78423 (parent)
chain: MAPISLSWLLRLATFCHLTVLLAGQHHGVTKCNITCSKMTSKIPVALLIHYQQNQASCGKRAIILETRQHRLFCADPKEQWVKDAMQHLDRQAAALTRNGGTFEKQIGEVKPRTTPAAGGMDESVVLEPEATGESSSLEPTPSSQEAQRALGTSPELPTGVTGSSGTRLPPTPKAQDGGPVGTELFRVPPVSTAATWQSSAPHQPGPSLWAEAKTSEAPSTQDPSTQASTASSPAPEENAPSEGQRVWGQGQSPRPENSLEREEMGPVPAHTDAFQDWGPGSMAHVSVVPVSSEGTPSREPVASGSWTPKAEEPIHATMDPQRLGVLITPVPDAQAATRRQAVGLLAFLGLLFCLGVAMFTYQSLQGCPRKMAGEMAEGLRYIPRSCGSNSYVLVPV

Variants of: B1
Details: with cx3c1_human CX3CR1, P49238
Sequence of cx3c1_human CX3CR1, P49238 (P49238 whole entry): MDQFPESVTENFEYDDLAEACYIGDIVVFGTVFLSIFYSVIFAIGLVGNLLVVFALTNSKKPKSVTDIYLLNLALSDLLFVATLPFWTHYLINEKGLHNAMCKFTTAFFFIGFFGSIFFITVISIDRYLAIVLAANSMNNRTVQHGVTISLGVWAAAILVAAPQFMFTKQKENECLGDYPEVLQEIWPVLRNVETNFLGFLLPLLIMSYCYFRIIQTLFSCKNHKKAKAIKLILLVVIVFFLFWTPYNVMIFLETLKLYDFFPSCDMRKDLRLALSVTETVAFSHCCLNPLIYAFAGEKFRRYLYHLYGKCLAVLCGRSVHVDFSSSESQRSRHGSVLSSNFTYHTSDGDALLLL

| effect of a mutation on the interaction | Variant |
| --- | --- |
| with no effect | MAPISLSWLLRLATFCHLTVLLAGQHHGVTKCNITCSKMTSKIPVALLIHYQQNQASCGAAAIILETRQHRLFCADPKEQWVKDAMQHLDRQAAALTRNGGTFEKQIGEVKPRTTPAAGGMDESVVLEPEATGESSSLEPTPSSQEAQRALGTSPELPTGVTGSSGTRLPPTPKAQDGGPVGTELFRVPPVSTAATWQSSAPHQPGPSLWAEAKTSEAPSTQDPSTQASTASSPAPEENAPSEGQRVWGQGQSPRPENSLEREEMGPVPAHTDAFQDWGPGSMAHVSVVPVSSEGTPSREPVASGSWTPKAEEPIHATMDPQRLGVLITPVPDAQAATRRQAVGLLAFLGLLFCLGVAMFTYQSLQGCPRKMAGEMAEGLRYIPRSCGSNSYVLVPV [K60A;R61A] |
| disrupting interaction strength | MAPISLSWLLRLATFCHLTVLLAGQHHGVTKCNITCSKMTSKIPVALLIHYQQNQASCGKRAIILETRQHALFCADPKEQWVKDAMQHLDRQAAALTRNGGTFEKQIGEVKPRTTPAAGGMDESVVLEPEATGESSSLEPTPSSQEAQRALGTSPELPTGVTGSSGTRLPPTPKAQDGGPVGTELFRVPPVSTAATWQSSAPHQPGPSLWAEAKTSEAPSTQDPSTQASTASSPAPEENAPSEGQRVWGQGQSPRPENSLEREEMGPVPAHTDAFQDWGPGSMAHVSVVPVSSEGTPSREPVASGSWTPKAEEPIHATMDPQRLGVLITPVPDAQAATRRQAVGLLAFLGLLFCLGVAMFTYQSLQGCPRKMAGEMAEGLRYIPRSCGSNSYVLVPV [R71A] |

— IntAct's records for PubMed 23125415
